Measured values published in paper PMC6131548 (2018).

Target: T1, Tsr2-N (recombinant, binding assays) (S. cerevisiae (yeast), UniProt Q06672 1-152)
T1 chain: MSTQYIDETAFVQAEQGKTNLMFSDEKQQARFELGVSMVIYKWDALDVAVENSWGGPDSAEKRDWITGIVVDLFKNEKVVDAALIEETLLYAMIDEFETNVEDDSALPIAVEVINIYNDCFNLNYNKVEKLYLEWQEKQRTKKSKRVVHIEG
Test: ITC

B1: ESS2 peptide (peptide)
peptide: RPRFNRENKVSPADAAKKAL
B1 was tested. Which Kd did it give?
Its Kd is 720 nM.
